Where “and” joins values, the source holds several entries; their conditions need not be identical. Equal entries are not always repeated.
Assays:
human Gro-beta [1] = biological target: T1, human Gro-beta (human, UniProt P19875 35-107); experiment: Biacore SPR, KL: anti-mouse Fc capture; KL: anti-mouse Fc capture
T1 construct: also called Gro-β; hGROβ
Experimental: (§1) Supernatant or purified antibody from parental mouse mAb is captured on the anti-mouse IgG-Fc surface. Defined concentrations of each analyte (IL8, Gro-band ENA-78) are passed over the immobilized or captured antibody surface, a separate capture event is used for each analyte injection. After each injection of analyte the surface is regenerated by injection
(§2) An injection of buffer is also injected over the antibody captured surface and this is used for double referencing. The data is analyzed using the analysis software inherent to the machine, using the 1:1 model of binding.

human ENA-78 [2] = biological target: T2, human ENA-78 (human, UniProt P42830 37-114, limits assumed); experiment: Biacore SPR, KL: anti-mouse Fc capture
T2 construct: also called hENA-78; CXCL5
Experimental: as §1, §2

human IL-8 [3] = biological target: T3, human IL-8 (human, UniProt P10145 28-99, limits assumed); experiment: Biacore SPR, KL: anti-mouse Fc capture
T3 construct: also called hIL-8; hIL8
Experimental: as §1, §2

human Gro-beta [4] = biological target: T1, human Gro-beta; experiment: Biacore SPR, BE: mAb amine-coupled;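 note: analytes IL-8, Gro-b and ENA-78 flowed at defined concentrations over the antibody surface, buffer injection used for double referencing, kinetics fitted to a 1:1 binding model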
Experimental: (§3) For experiment designated BE, purified antibodies directly immobilized to the chip by amine coupling was used.
(§4) Defined concentrations of each analyte (IL8, Gro-band ENA-78) are passed over the immobilized or captured antibody surface, a separate capture event is used for each analyte injection. After each injection of analyte the surface is regenerated by injection
as §2

human ENA-78 [5] = biological target: T2, human ENA-78; experiment: Biacore SPR, BE: mAb amine-coupled;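 note: analytes IL-8, Gro-b and ENA-78 flowed at defined concentrations over the antibody surface, buffer injection used for double referencing, kinetics fitted to a 1:1 binding model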
Experimental: as §3, §4, §2

human IL-8 [6] = biological target: T3, human IL-8; experiment: Biacore SPR, BE: mAb amine-coupled;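 note: analytes IL-8, Gro-b and ENA-78 flowed at defined concentrations over the antibody surface, buffer injection used for double referencing, kinetics fitted to a 1:1 binding model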
Experimental: as §3, §4, §2

human Gro-beta [7] = biological target: T1, human Gro-beta; experiment: Biacore SPR, BE: mAb amine-coupled; BE: mAb amine-coupled;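 for Kd: analytes IL-8, Gro-b and ENA-78 flowed at defined concentrations over the antibody surface, buffer injection used for double referencing, kinetics fitted to a 1:1 binding model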
Experimental: as §3, §4, §2

human Gro-alpha [8] = biological target: T4, human Gro-alpha (human, UniProt P09341 35-107); experiment: TRFIA, chemokine coated on plate, europium anti-human IgG detection; antibody concentration not given
T4 construct: also called Gro-α; hGROα

human GCP-2 [9] = biological target: T5, human GCP-2 (human, UniProt P80162 38-114, limits assumed); experiment: as above
T5 construct: also called hGCP-2; CXCL6
Experimental: (§5) Briefly, each antigen (human IL-8, Gro-alpha, Gro-beta, Gro-gamma, GCP-2, and ENA-78, and hIL-18 when used as negative control) is individually coated onto a 96-well immunofluorescent plate. The plates are then washed and blocked with a commercially available blocking solution. Blocking solution is emptied and samples containing the mAb are added into each well and incubated for 40 to 60 minutes (this allows the mAb to bind to the target chemokines). The plates are then washed again and a detection Ab is added to each well. […] The detection antibody is conjugated to either europium or biotin. Following another round of washing, to remove unbound detection Ab, a solution of streptavidin-europium was added to biotin detected assays. Streptavidin-europium binds to the biotin allowing for detection. After a final wash to remove unbound streptavidin-europium, or in the case of the humanized MAb assay after the europium conjugate secondary is washed, each well is filled with a chelating detergent solution to activate the europium producing fluorescence. The greater the fluorescence recorded is directly proportionate to the amount of detection Ab present in the well which is directly linked and proportionate to the amount of the chemokine binding mAb.

human Gro-gamma [10] = biological target: T6, human Gro-gamma (human, UniProt P19876 35-107); experiment: as above
T6 construct: also called Gro-γ; CXCL3
Experimental: as §5

human ENA-78 [11] = biological target: T2, human ENA-78; experiment: Biacore SPR, Protein A capture;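 note: purified antibody captured on Protein A immobilised on a CM5 chip, chemokine analytes flowed over at defined concentrations, buffer injection for double referencing, kinetics fitted with a 1:1 binding model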
Text: (§6) A Protein A capture method was used to generate kinetics for the humanised and chimeric constructs as follows:
(§7) Protein A is immobilised on a CM5 chip by primary amine coupling in accordance with the manufactures instructions. Purified humanised or chimeric antibody is captured on the Protein A surface. After capture defined concentrations of each analyte (IL8, Gro-β and ENA-78) are passed over the antibody captured surface, a separate capture event is used for each analyte injection. […] An injection of buffer is also injected over the antibody captured surface and this is used for double referencing. The data is analysed using the analysis software inherent to the machine, using the 1:1 model of binding.

human IL-8 [12] = biological target: T3, human IL-8; experiment: Biacore SPR, Protein A capture;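 note: purified antibody captured on Protein A immobilised on a CM5 chip, chemokine analytes flowed over at defined concentrations, buffer injection for double referencing, kinetics fitted with a 1:1 binding model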
Text: as §6, §7

human Gro-beta [13] = biological target: T1, human Gro-beta; experiment: Biacore SPR, KL: anti-mouse Fc capture
Experimental: as §1, §2

human Gro-beta [14] = biological target: T1, human Gro-beta; experiment: TRFIA, chemokine coated on plate, biotinylated anti-mouse IgG and streptavidin-europium detection
Experimental: as §5

human Gro-alpha [15] = biological target: T4, human Gro-alpha; experiment: as above
Experimental: as §5

human ENA-78 [16] = biological target: T2, human ENA-78; experiment: as above
Experimental: as §5

human Gro-gamma [17] = biological target: T6, human Gro-gamma; experiment: as above
Experimental: as §5

human IL-8 [18] = biological target: T3, human IL-8; experiment: as above
Experimental: as §5

human Gro-beta [19] = biological target: T1, human Gro-beta; experiment: TRFIA, chemokine coated on plate, biotinylated anti-human IgG Fab2 reagent and streptavidin-europium detection
Experimental: as §5

human Gro-alpha [20] = biological target: T4, human Gro-alpha; experiment: as above
Experimental: as §5

human GCP-2 [21] = biological target: T5, human GCP-2; experiment: as above
Experimental: as §5

human ENA-78 [22] = biological target: T2, human ENA-78; experiment: as above
Experimental: as §5

human Gro-gamma [23] = biological target: T6, human Gro-gamma; experiment: as above
Experimental: as §5

human IL-8 [24] = biological target: T3, human IL-8; experiment: as above
Experimental: as §5

hIL-18 = biological target: T7, hIL-18 (Homo sapiens, UniProt Q14116); experiment: TRFIA, hIL-18 coated on plate, biotinylated anti-human IgG Fab2 reagent and streptavidin-europium detection
T7 construct: Printed on the sheets: 'hIL-18 run as a negative control'; also called human IL-18
Experimental: as §5

| Kd (human ENA-78 [2]) [nM] | koff (human ENA-78 [2]) [s⁻¹] | kon (human ENA-78 [2]) [M⁻¹ s⁻¹] | Kd (human IL-8 [3]) [nM] | koff (human IL-8 [3]) [s⁻¹] | kon (human IL-8 [3]) [M⁻¹ s⁻¹] | Kd (human Gro-beta [4]) [nM] | kon (human Gro-beta [4]) [M⁻¹ s⁻¹] | Kd (human ENA-78 [5]) [nM] | koff (human ENA-78 [5]) [s⁻¹] | kon (human ENA-78 [5]) [M⁻¹ s⁻¹] | Kd (human IL-8 [6]) [nM] | koff (human IL-8 [6]) [s⁻¹] | kon (human IL-8 [6]) [M⁻¹ s⁻¹] | binding result (human Gro-alpha [8]) | binding result (human GCP-2 [9]) | binding result (human Gro-gamma [10]) | Binder | further results |
| --- | --- | --- | --- | --- | --- | --- | --- | --- | --- | --- | --- | --- | --- | --- | --- | --- | --- | --- |
| 9 | 0.00269 | 299000 | 5.89 | 0.00369 | 627000 | < 0.00962 | 1.04e+06 | 10.1 | 0.00302 | 301000 | 0.69 | 0.000499 | 723000 |  |  |  | mouse monoclonal antibody 197.2 (antibody, IgG2a, V domains shown, Murine hybridoma mAb) VH: EFQLQQSGPELVKPGASVKISCKASGYSFTDYNMNWVKQSNGKSLEWIGVINPKYGTTSYNQKFKGKATLTVDQSSNTAYMQLSSLTSEDSAVYHCARGMGLLFGMDYWGQGTSVTVSS VL: DIVMTQSPSSLSVSAGEKVTMSCKSSQSLLNSGNQKNYLAWYQQKPGQPPKLLIYGASTRKSGVPDRFTGSGSGTDFTLTISSVQAEDLAVYYCQNDHSFPCTFGGGTKLEIKR | Kd (human Gro-beta [1]): 0.639 nM; koff (human Gro-beta [1]): 0.000993 s⁻¹; kon (human Gro-beta [1]): 1.55e+06 M⁻¹ s⁻¹; koff (human Gro-beta [7]): < 1e-05 s⁻¹ |
|  |  |  |  |  |  |  |  |  |  |  |  |  |  | binds | binds | binds | humanized penta-specific antibody construct H0M0 (antibody, human IgG1, kappa, V domains shown, H0 mature heavy chain with M0 mature light chain) VH: QVQLVQSGAEVKKPGASVKVSCKASGYTFTNYWIVWVRQAPGQGLEWMGDLYSGGGYTFYSENFKGRVTMTRDTSTSTVYMELSSLRSEDTAVYYCARSGYDRTWFAHWGQGTLVTVSS VL: EIVLTQSPATLSLSPGERATLSCQASQDIESYLSWYQQKPGQAPRLLIYYATRLADGIPARFSGSGSGTDFTLTISSLEPEDFAVYYCLQHGESPPTFGQGTKLEIKR |  |
|  |  |  |  |  |  |  |  |  |  |  |  |  |  | binds | binds | binds | humanized penta-specific antibody construct H0L7 (antibody, human IgG1, kappa, V domains shown, H0 mature heavy chain with L7 mature light chain) VH: QVQLVQSGAEVKKPGASVKVSCKASGYTFTNYWIVWVRQAPGQGLEWMGDLYSGGGYTFYSENFKGRVTMTRDTSTSTVYMELSSLRSEDTAVYYCARSGYDRTWFAHWGQGTLVTVSS VL: DIQMTQSPSSLSASVGDRVTITCQASQDIESYLSWYQQKPGKAPKLLIYYATRLADGVPSRFSGSGSGTDFTLTISSLQPEDFATYYCLQHGESPPTFGQGTKLEIKR |  |
|  |  |  |  |  |  |  |  |  |  |  |  |  |  | binds | binds | binds | humanized penta-specific antibody construct H0L8 (antibody, human IgG1, kappa, V domains shown, H0 mature heavy chain with L8 mature light chain) VH: QVQLVQSGAEVKKPGASVKVSCKASGYTFTNYWIVWVRQAPGQGLEWMGDLYSGGGYTFYSENFKGRVTMTRDTSTSTVYMELSSLRSEDTAVYYCARSGYDRTWFAHWGQGTLVTVSS VL: DIQMTQSPSSLSASVGDRVTITCQASQDIESYLSWYQQKPGKAPKLLIYYATRLADGVPSRFSGSGSGTDFTFTISSLQPEDIATYYCLQHGESPPTFGQGTKLEIKR | Kd (human ENA-78 [11]): 0.1 nM and 0.0941 nM and 0.0912 nM and 0.0755 nM; koff (human ENA-78 [11]): 0.000288 s⁻¹ and 0.000266 s⁻¹ and 0.000269 s⁻¹ and 0.000248 s⁻¹; kon (human ENA-78 [11]): 2.88e+06 M⁻¹ s⁻¹ and 2.82e+06 M⁻¹ s⁻¹ and 2.95e+06 M⁻¹ s⁻¹ and 3.29e+06 M⁻¹ s⁻¹; Kd (human IL-8 [12]): 0.188 nM and 0.143 nM and 0.175 nM and 0.152 nM; koff (human IL-8 [12]): 0.00111 s⁻¹ (2×) and 0.00113 s⁻¹ and 0.00119 s⁻¹; kon (human IL-8 [12]): 5.9e+06 M⁻¹ s⁻¹ and 7.89e+06 M⁻¹ s⁻¹ and 6.8e+06 M⁻¹ s⁻¹ and 7.3e+06 M⁻¹ s⁻¹ |
|  |  |  |  |  |  |  |  |  |  |  |  |  |  | binds | binds | binds | humanized penta-specific antibody construct H0L10 (antibody, human IgG1, kappa, V domains shown, H0 mature heavy chain with L10 mature light chain) VH: QVQLVQSGAEVKKPGASVKVSCKASGYTFTNYWIVWVRQAPGQGLEWMGDLYSGGGYTFYSENFKGRVTMTRDTSTSTVYMELSSLRSEDTAVYYCARSGYDRTWFAHWGQGTLVTVSS VL: DIQMTQSPSSLSASVGDRVTITCQASQDIESYLSWYQQKPGKAPKLLIYYATRLADGVPSRFSGSGSGQDYTLTISSLQPEDFATYYCLQHGESPPTFGQGTKLEIKR | Kd (human ENA-78 [11]): 0.0899 nM and 0.0722 nM and 0.0742 nM and 0.0613 nM |
| 1.74 | 0.00187 | 1.07e+06 | 0.964 | 0.00148 | 1.53e+06 | 0.111 | 1.32e+07 | 0.271 | 0.000796 | 2.94e+06 | 0.0839 | 0.000687 | 8.19e+06 |  |  |  | mouse monoclonal antibody 656.35 (antibody, IgG2a, V domains shown, Murine hybridoma mAb) VH: QVQLQQSGAELVRPGTSVTISCKASGYTFTNYWIVWVKQRPGHGLEWIGDLYSGGGYTFYSENFKGKATLTADTSSSTAYMHLISLTSEDSAVYFCARSGYDRTWFAHWGQGSLVTVSA VL: DIKMTQSPSSMSASLGERVTITCQASQDIESYLSWYQQKPWKSPKTLIYYATRLADGVPSRFSGSGSGQDYSLTISSLESDDTATYYCLQHGESPPTFGAGTKLELKR | Kd (human Gro-beta [13]): 0.526 nM; koff (human Gro-beta [13]): 0.00201 s⁻¹; kon (human Gro-beta [13]): 3.82e+06 M⁻¹ s⁻¹; koff (human Gro-beta [4]): 0.00146 s⁻¹; EC50 (read off the curve) (human Gro-beta [14]): ~20 ng/mL; EC50 (read off the curve) (human Gro-alpha [15]): ~30 ng/mL; EC50 (read off the curve) (human ENA-78 [16]): ~20 ng/mL; EC50 (read off the curve) (human Gro-gamma [17]): ~20 ng/mL; EC50 (read off the curve) (human IL-8 [18]): ~30 ng/mL |
|  |  |  |  |  |  |  |  |  |  |  |  |  |  |  |  |  | Chimera Antibody (HcLc) made from 656.35 (antibody, human IgG1, kappa, V domains shown, also called the Chimera Antibody; chimera (HcLc)) VH: QVQLQQSGAELVRPGTSVTISCKASGYTFTNYWIVWVKQRPGHGLEWIGDLYSGGGYTFYSENFKGKATLTADTSSSTAYMHLISLTSEDSAVYFCARSGYDRTWFAHWGQGSLVTVSS VL: DIKMTQSPSSMSASLGERVTITCQASQDIESYLSWYQQKPWKSPKTLIYYATRLADGVPSRFSGSGSGQDYSLTISSLESDDTATYYCLQHGESPPTFGAGTKLELKR | EC50 (read off the curve) (human Gro-beta [19]): ~40 ng/mL; EC50 (read off the curve) (human Gro-alpha [20]): ~50 ng/mL; EC50 (read off the curve) (human GCP-2 [21]): ~40 ng/mL; EC50 (read off the curve) (human ENA-78 [22]): ~40 ng/mL; EC50 (read off the curve) (human Gro-gamma [23]): ~40 ng/mL; EC50 (read off the curve) (human IL-8 [24]): ~70 ng/mL; binding result (hIL-18): no binding (tested: 1000 ng/ml) |
| 0.616 | 0.000376 | 611000 | 4.8 | 0.00932 | 1.95e+06 | 0.0898 | 5.44e+06 | 0.0239 | 3.94e-06 | 165000 | 55.5 | 0.108 | 1.95e+06 |  |  |  | mouse monoclonal antibody 81.1 (antibody, IgG2a, V domains shown, Murine hybridoma mAb) VH: EVQLQQSGPELEKPGASVKISCKASGYSFTVYGMNWVRQSNGKSLEWIGNFDPYFSVTSYNQKFQDKATLTVDKSSSTAYMQLKNLTSEDSAVYFCARGSWETIFAYWGQGTLVTVSA VL: QAVVTQESALTTSPGETVTLTCRSSTGAVTTSNYANWVQEKPDHLFTGLIGGTNNRAPGVPARFSGSLIGDKAALTITGAQTEDEAIYFCALWYSNHVFGGGTKLTVLQ | Kd (human Gro-beta [13]): 0.113 nM; koff (human Gro-beta [13]): 0.000312 s⁻¹; kon (human Gro-beta [13]): 2.76e+06 M⁻¹ s⁻¹; koff (human Gro-beta [4]): 0.000489 s⁻¹ |

From patent US20080262203A1 (published 2008)
